Data reported in US20220135670A1 (TESARO, published 2022).

Key:
[1] = target: T1, human LAG-3 expressed on the surface of CHO cells (human, UniProt P18627 23-525); experiment: binding to LAG-3 expressing CHO cells
T1 construct: whole, on cells; also called LAG-3 expressing CHO cells; cell-surface-expressed LAG-3
T1 sequence (looked up): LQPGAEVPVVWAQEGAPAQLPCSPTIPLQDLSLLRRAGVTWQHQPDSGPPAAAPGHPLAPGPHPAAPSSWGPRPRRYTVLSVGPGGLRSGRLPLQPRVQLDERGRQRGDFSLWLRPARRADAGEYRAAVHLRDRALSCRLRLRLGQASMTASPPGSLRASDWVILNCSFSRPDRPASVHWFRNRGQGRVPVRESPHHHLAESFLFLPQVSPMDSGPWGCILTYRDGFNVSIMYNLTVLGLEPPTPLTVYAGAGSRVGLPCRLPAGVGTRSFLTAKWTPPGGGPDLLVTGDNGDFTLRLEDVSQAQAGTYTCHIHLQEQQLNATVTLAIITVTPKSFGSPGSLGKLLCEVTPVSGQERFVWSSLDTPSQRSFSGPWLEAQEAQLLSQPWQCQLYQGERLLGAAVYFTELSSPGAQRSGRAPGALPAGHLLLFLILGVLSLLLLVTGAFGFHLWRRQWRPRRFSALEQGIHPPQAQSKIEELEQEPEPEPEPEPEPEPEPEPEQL

[2] = target: T2, cynomolgus monkey LAG-3 expressed on the surface of CHO cells (cynomolgus monkey); experiment: binding to LAG-3 expressing CHO cells
T2 construct: whole, on cells; also called Cyno LAG-3; LAG-3 expressing CHO cells

[3] = target: T3, recombinant soluble human LAG-3 (human, UniProt P18627 23-450, limits assumed); experiment: SPR, recombinant soluble LAG-3
T3 construct: also called soluble LAG-3
T3 sequence (looked up): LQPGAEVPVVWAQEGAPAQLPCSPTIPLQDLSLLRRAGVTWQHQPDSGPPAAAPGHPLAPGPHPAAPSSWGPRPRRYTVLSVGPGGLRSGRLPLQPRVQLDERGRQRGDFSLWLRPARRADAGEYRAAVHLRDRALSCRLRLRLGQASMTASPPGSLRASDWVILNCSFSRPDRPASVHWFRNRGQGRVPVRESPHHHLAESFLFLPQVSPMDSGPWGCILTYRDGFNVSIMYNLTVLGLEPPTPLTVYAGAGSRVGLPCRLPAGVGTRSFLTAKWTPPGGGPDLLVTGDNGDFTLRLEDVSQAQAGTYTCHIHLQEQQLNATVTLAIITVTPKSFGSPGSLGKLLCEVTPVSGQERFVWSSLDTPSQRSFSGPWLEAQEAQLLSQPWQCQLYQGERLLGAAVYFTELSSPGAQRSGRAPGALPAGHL

[4] = target: T4, recombinant soluble cynomolgus monkey LAG-3 (cynomolgus monkey); experiment: SPR, recombinant soluble LAG-3
T4 construct: also called Cyno LAG-3; soluble LAG-3

[5] = target: DyLight 650 (DyL650)-labeled LAG-3 fusion protein; experiment: flow cytometry competition: antibody titrated against binding of the DyL650-labeled LAG-3 fusion protein to MHC class II on Daudi cells; readout MFI (Dyl650)
[6] = target: T5, LAG-3 expressed on Jurkat cells (Homo sapiens (Human), UniProt P18627 23-525); experiment: cell-based or functional assay
T5 sequence: T1 sequence (looked up)

[7] = target: T6, LAG-3 (axis label "%LAG-3 OCCUPANCY", DONOR 1 to DONOR 4) (human, UniProt P18627); experiment: receptor occupancy assay on SEB-stimulated human donor PBMCs (4 donors)
T6 construct: full-length, on the cell surface; also called LAG-3 on SEB-stimulated human donor PBMCs
T6 sequence (receptor, looked up): T1 sequence (looked up)

B1: anti-LAG-3 antibody agent TSR-033 (antibody, human IgG4 S228P, kappa, V domains shown)
VH: EVQLVQSGAEVKKPGATVKISCKASGFSIKDDYIHWVQQAPGKGLEWMGWIDAMNDDSQYSSKFQGRVTITVDTSTNTAYMKLSSLRSEDTAVYYCTYAFGGYWGQGTTVTVSS
VL: DIVMTQTPLSLSVTPGQPASISCRSSQSLVHSDSNTYLHWYLQKPGQSPQLLIYLVSNRFSGVPDRFSGSGSGTDFTLKISRVEAEDVGVYFCGQSTHVPYAFGGGTKVEIKR
modifications: N-glycosylation at N291 of the heavy chain
notes: also called exemplary anti-LAG-3 antibody agent; exemplary anti-LAG-3 antibody
EC50 [1]: 0.8 nM
EC50 [2]: 2.6 nM
Kd [3]: 0.95 nM
koff [3]: 0.00013 s⁻¹
Kd [4]: 2 nM
koff [4]: 0.00026 s⁻¹
IC50 [5]: 3.4 nM
EC50 (read off the curve); NFAT-luciferase reporter signal (RLU) [6]: ~70 nM
EC50 (read off the curve) [7]: ~0.06 µg/mL
